Measurements reported in patent US20130115681.
Numbering of substitutions follows the chain as printed.

Experiments:
Test in all cases: cleavage_in_vitro
[1] = target: T1, SalI-HF R107A (Streptomyces albus G) (UniProt Q53608); conditions: NEB4, 37 C
T1 sequence: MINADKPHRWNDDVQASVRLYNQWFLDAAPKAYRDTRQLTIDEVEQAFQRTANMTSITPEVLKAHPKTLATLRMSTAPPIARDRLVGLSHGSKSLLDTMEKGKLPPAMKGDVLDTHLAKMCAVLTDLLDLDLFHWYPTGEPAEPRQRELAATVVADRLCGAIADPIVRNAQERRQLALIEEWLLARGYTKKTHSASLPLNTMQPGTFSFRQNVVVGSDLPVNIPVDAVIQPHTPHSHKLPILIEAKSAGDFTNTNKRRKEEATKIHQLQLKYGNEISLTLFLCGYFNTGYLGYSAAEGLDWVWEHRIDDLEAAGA

[2] = target: T2, SalI (Streptomyces albus G) (UniProt Q53608); conditions: NEB4, 37 C
T2 sequence: T1 sequence with A107R

[3] = system: T3, BspQI-HF K279P/R388F (Bacillus sphaericus); conditions: NEB4, 50 C
T3 sequence: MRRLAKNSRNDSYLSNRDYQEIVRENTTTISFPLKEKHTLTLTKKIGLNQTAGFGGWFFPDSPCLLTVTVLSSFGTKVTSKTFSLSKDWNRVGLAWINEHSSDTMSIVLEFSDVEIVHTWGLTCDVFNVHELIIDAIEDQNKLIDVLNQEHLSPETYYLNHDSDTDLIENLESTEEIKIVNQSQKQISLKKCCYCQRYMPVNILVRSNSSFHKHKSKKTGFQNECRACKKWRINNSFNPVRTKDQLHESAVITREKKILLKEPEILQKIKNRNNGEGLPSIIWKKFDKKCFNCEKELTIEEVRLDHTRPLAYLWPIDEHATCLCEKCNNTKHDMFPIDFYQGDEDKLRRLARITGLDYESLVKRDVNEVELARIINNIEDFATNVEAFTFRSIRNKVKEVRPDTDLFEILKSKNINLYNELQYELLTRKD

[4] = system: T4, SphI-HF K100A (Streptomyces phaeochromogenes); conditions: NEB4, 37 C
T4 sequence: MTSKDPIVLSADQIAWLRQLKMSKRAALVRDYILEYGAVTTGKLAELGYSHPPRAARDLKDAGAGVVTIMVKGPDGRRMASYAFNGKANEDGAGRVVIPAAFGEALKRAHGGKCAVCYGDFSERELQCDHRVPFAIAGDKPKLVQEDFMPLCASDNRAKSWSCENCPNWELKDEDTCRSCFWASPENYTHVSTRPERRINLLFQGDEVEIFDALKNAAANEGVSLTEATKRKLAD

[5] = target: T5, HindIII (Haemophilus influenzae Rd) (UniProt P43870); conditions: NEB4, 37 C; FI 250 in NEB2
T5 sequence: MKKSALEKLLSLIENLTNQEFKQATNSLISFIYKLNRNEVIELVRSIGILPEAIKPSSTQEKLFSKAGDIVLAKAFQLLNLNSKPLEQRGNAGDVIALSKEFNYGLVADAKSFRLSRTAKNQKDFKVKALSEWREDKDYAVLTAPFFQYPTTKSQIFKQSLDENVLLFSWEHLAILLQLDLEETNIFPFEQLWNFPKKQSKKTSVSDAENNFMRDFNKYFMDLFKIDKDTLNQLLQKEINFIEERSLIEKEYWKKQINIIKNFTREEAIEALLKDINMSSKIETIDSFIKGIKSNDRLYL

[6] = system: T6, SbfI (Streptomyces species Bf-61?); conditions: NEB4, 37 C
T6 sequence: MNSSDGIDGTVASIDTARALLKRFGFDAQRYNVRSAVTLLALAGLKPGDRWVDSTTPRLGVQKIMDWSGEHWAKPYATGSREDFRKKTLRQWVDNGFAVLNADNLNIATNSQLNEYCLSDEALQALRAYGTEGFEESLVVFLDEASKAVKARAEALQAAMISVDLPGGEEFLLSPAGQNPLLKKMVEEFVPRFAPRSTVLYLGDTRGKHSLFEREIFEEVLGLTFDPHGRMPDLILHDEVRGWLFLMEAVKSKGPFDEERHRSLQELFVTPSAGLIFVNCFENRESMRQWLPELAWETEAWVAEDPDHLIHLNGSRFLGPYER

[7] = target: T7, PstI-HF D91A (Providencia stuartii 164) (UniProt P00640); conditions: NEB4, 37 C
T7 sequence: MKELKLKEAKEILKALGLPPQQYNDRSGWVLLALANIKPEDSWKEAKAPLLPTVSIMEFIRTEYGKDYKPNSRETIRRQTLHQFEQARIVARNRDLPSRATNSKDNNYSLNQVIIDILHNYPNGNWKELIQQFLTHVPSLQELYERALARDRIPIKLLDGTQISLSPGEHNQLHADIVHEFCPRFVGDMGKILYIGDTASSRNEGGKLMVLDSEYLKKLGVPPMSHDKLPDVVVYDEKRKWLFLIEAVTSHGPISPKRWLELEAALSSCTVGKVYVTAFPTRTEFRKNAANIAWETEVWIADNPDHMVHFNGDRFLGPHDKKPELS

[8] = system: BsmBI-HF N185Y/R232A; conditions: NEB4, 55 C
[9] = target: T8, ScaI-HF H193A/S201F (Streptomyces caespitosus) (UniProt O52691); conditions: NEB4, 37 C
T8 sequence: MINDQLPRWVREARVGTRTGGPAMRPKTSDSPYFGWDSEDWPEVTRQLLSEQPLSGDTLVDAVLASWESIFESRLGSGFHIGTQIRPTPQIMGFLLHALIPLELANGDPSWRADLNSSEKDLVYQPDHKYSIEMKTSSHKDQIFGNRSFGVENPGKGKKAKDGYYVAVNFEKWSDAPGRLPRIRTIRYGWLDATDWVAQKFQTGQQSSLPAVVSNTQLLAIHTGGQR

[10] = system: T9, SbfI-HF K251A (Streptomyces species Bf-61?); conditions: NEB4, 37 C
T9 sequence: T6 sequence with K251A

[11] = target: T10, BamHI-HF E163A/E167T (Bacillus amyloliquefaciens) (UniProt P23940); conditions: NEB4, 37 C
T10 sequence: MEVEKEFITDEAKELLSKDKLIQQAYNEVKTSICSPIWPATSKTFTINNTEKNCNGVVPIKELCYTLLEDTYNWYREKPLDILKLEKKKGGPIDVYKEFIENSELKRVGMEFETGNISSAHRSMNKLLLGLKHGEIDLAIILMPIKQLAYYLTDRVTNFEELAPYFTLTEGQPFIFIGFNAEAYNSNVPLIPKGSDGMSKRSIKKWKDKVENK

[12] = system: BstXI; conditions: NEB4, 55 C
[13] = system: BstXI-HF N65A; conditions: NEB4, 55 C
[14] = system: T11, NcoI-HF A2T/R31A (Nocardia corallina); conditions: NEB4, 37 C
T11 sequence: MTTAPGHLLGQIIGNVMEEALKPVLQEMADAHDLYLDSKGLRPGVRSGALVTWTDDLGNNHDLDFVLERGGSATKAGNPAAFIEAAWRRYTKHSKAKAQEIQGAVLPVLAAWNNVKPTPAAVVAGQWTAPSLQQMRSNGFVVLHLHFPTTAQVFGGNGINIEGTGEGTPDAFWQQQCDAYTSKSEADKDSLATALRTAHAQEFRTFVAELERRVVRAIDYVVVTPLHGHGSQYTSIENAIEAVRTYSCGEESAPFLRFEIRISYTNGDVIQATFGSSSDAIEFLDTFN

## HindIII-digested lambda DNA
[1]
  activity (fidelity index): 32000
[2]
  activity (fidelity index): 1

## pUC19
[3]
  activity (fidelity index): 4000

## lambda phage DNA
[4]
  activity (fidelity index): 8000
[5]
  activity (fidelity index): 32
[6]
  activity (fidelity index): 8
[7]
  activity (fidelity index): 4000
[8]
  activity (fidelity index): 500
[9]
  activity (fidelity index): 1000
[10]
  activity (fidelity index): 250
[11]
  activity (fidelity index): 4000
[12]
  activity (fidelity index): 4
[13]
  activity (fidelity index): 250
[14]
  activity (fidelity index): 64000
